From PMC3366968, “Functional Characterization of a First Avian Cytochrome P450 of the CYP2D Subfamily (CYP2D49)” (PLoS ONE, 2012)

Substrate: CCc1cccc2cc(C(O)CNC(C)(C)C)oc12
Assay: purified protein
Format: biochemical, Gallus gallus
Conditions: 2-200 µM bufuralol, NADPH, NADPH-P450 reductase, cytochrome b5, liposome, 10 mM MgCl2, 100 mM potassium phosphate pH 7.4, 37°C

B1: CYP2D49 (Gallus gallus) (protein)
chain: MTLLLWLSSWSNISVLGVFLTVFTILVDFMKRRKKWSRYPPGPMPLPFVGTMPYVNYYNPHLSFEKFRKKFGNIFSLQNCWTNVVVLNGYKTVKEALVNKSEDFADRPYMPVYEHLGYGHKSEGLVLARYGHLWKELRKFTLTTLRNFGMGKKSLEERVTEEAGFLCSAISSEGGHPFDPRFLVNNAVCNVICTITYGERFDYGDKTFKKLLTLFENSLNEEAGFLPQLLNVAPVLLRIPGLPQKIFPCQKAYVDFTQMLIDKHKETWNPAYIRDFTDAFLKEMAKGKEAEENGFNKSNLTLVTADLLVAGSETTATTLRWAFLFMLLYPEIQSKVHKEIDKVIGRNRPPTMADQVNMPYTNAVIHEVQRFGDVVPMGLPHMTYRDTELQGFFIPKGTTIITNLTSVLKDETAWKKPNEFYPEHFLNENGQFVRPEAFLPFSAGRRACLGEQLTRMELFIFFTTLMQKFTFVFPEDQPRPREDSHFAFTNSPHPYQLRAVPR
notes: full-length 502-residue ORF, N-terminal ompA leader (21 aa) plus Leu-Glu spacer, Myc-His-tagged fusion, about 55 kDa, expressed in E. coli DH5alpha, purified by Ni-NTA
  Km: 3.948 ± 0.232 µM
